In patent US20180371087A1 (published 2018):
Positions count from the first letter of the chain named. In names and notes the source's numbering stands.

B1: LAG3.7-G4P (antibody, V domains shown)
VH: QVQLQQWGAGLLKPSETLSLTCAVYGGSFSDYYWNWIRQPPGKGLEWIGEINHGGGTNSNPSLKSRVTLSLDTSKNQFSLKLRSVTAADTAVYYCAFGYSDYEYNWFDPWGQGTLVTVSS
VL: EIVLTQSPATLSLSPGERATLSCRASQSISSYLAWYQQKPGQAPRLLIYDASNRATGIPARFSGSGSGTDFTLTISSLEPEDFAVYYCQQRSNWPLTFGQGTNLEIK
B2: LAG3.8 antibody variant of LAG3.1 (antibody, V domains shown)
VH: B1 VH with G54I, G56N
VL: EIVLTQSPATLSLSPGERATLSCRASQSISSYLAWYQQKPGQAPRLLIYDASNRATGIPARFSGSGSGTDFTLTISSLEPEDFAVYYCQQRSNWPLTFGQGTNLEIKR
B3: LAG3.8 (antibody, V domains shown)
VH: B1 VH with G54I, G56N
VL: B2 VL

Tests used:
[1] = target: T1, human LAG-3 (Lymphocyte Activation Gene-3), native or transduced, on the cell surface (UniProt P18627 23-525); assay: FACS binding; activated human CD4+ T cells
T1 chain: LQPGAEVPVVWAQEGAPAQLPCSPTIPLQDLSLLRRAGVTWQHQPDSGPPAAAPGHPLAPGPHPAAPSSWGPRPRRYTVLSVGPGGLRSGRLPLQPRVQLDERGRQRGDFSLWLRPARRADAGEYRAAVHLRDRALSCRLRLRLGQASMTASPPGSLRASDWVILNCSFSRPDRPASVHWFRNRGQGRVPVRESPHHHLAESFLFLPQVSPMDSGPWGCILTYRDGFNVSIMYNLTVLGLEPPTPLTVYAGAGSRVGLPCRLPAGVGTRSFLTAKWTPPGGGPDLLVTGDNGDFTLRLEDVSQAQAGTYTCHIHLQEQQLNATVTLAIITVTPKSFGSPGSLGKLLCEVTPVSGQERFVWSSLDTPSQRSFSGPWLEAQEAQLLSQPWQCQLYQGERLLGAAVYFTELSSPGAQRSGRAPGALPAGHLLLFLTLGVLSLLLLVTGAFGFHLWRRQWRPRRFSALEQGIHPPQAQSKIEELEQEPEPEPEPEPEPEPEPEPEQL

[2] = target: D1D4 construct; assay: SPR (Biacore)

Binder	EC50 [1]	Kd [2]
B1	330 pM	–
B2	190 pM	–
B3	–	300 pM
